Paper PMC3577348 (Science (New York, N.Y.), 2012)

T1: mini-XWnt8 (C-terminal fragment of XWnt8, residues 248-338) displayed on yeast (Xenopus, UniProt P28026 248-338)
T1 sequence (looked up): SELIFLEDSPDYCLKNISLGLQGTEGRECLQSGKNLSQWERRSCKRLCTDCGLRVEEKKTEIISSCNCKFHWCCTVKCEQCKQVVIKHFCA

B1: human Fz5-CRD (residues 30-150), biotinylated (domain or fragment, UniProt Q13467 30-150, looked up)
chain: APVCQEITVPMCRGIGYNLTHMPNQFNHDTQDEAGLEVHQFWPLVEIQCSPDLRFFLCSMYTPICLPDYHKPLPPCRSVCERAKAGCSPLMRQYGFAWPERMSCDRLPVLGRDAEVLCMDY
modifications: biotin on the BAP-tag (enzymatic, GST-BirA ligase)
B2: mouse Fz8-CRD (residues 32-151), biotinylated (domain or fragment, UniProt Q61091 32-151, looked up)
chain: ELACQEITVPLCKGIGYNYTYMPNQFNHDTQDEAGLEVHQFWPLVEIQCSPDLKFFLCSMYTPICLEDYKKPLPPCRSVCERAKAGCAPLMRQYGFAWPDRMRCDRLPEQGNPDTLCMDY
modifications: biotin on the BAP-tag (enzymatic, GST-BirA ligase)

Experiments:
[1] = molecular target: T1, mini-XWnt8 (C-terminal fragment of …); assay: flow cytometry on cells
[2] = molecular target: B2; assay: SPR
[3] = molecular target: B1; assay: SPR

percent of yeast stained [1] [%] | Kd [2] [nM] | Kd [3] [nM] | Binder
~30 | – | – | B1
– | ~2400 | ~3500 | soluble mini-XWnt8 (residues 248-338) with C-terminal six-histidine tag (domain or fragment, Xenopus, UniProt P28026 248-338, looked up) SELIFLEDSPDYCLKNISLGLQGTEGRECLQSGKNLSQWERRSCKRLCTDCGLRVEEKKTEIISSCNCKFHWCCTVKCEQCKQVVIKHFCA
~50 | – | – | B2
